# B1: Centrosomal protein of 55 kDa (Homo sapiens), Q53EZ4 (parent)
# chain: MSSRSTKDLIKSKWGSKPSNSKSETTLEKLKGEIAHLKTSVDEITSGKGKLTDKERHRLLEKIRVLEAEKEKNAYQLTEKDKEIQRLRDQLKARYSTTTLLEQLEETTREGERREQVLKALSEEKDVLKQQLSAATSRIAELESKTNTLRLSQTVAPNCFNSSINNIHEMEIQLKDALEKNQQWLVYDQQREVYVKGLLAKIFELEKKTETAAHSLPQQTKKPESEGYLQEEKQKCYNDLLASAKKDLEVERQTITQLSFELSEFRRKYEETQKEVHNLNQLLYSQRRADVQHLEDDRHKTEKIQKLREENDIARGKLEEEKKRSEELLSQVQFLYTSLLKQQEEQTRVALLEQQMQACTLDFENEKLDRQHVQHQLHVILKELRKARNQITQLESLKQLHEFAITEPLVTFQGETENREKVAASPKSPTAALNESLVECPKCNIQYPATEHRDLLVHVEYCSK
# B2: BUD13 homolog (Homo sapiens), Q9BRD0 (parent)
# chain: MAAAPPLSKAEYLKRYLSGADAGVDRGSESGRKRRKKRPKPGGAGGKGMRIVDDDVSWTAISTTKLEKEEEEDDGDLPVVAEFVDERPEEVKQMEAFRSSAKWKLLGGHNEDLPSNRHFRHDTPDSSPRRVRHGTPDPSPRKDRHDTPDPSPRRARHDTPDPSPLRGARHDSDTSPPRRIRHDSSDTSPPRRARHDSPDPSPPRRPQHNSSGASPRRVRHDSPDPSPPRRARHGSSDISSPRRVHNNSPDTSRRTLGSSDTQQLRRARHDSPDLAPNVTYSLPRTKSGKAPERASSKTSPHWKESGASHLSFPKNSKYEYDPDISPPRKKQAKSHFGDKKQLDSKGDCQKATDSDLSSPRHKQSPGHQDSDSDLSPPRNRPRHRSSDSDLSPPRRRQRTKSSDSDLSPPRRSQPPGKKAAHMYSGAKTGLVLTDIQREQQELKEQDQETMAFEAEFQYAETVFRDKSGRKRNLKLERLEQRRKAEKDSERDELYAQWGKGLAQSRQQQQNVEDAMKEMQKPLARYIDDEDLDRMLREQEREGDPMANFIKKNKAKENKNKKVRPRYSGPAPPPNRFNIWPGYRWDGVDRSNGFEQKRFARLASKKAVEELAYKWSVEDM
# partner: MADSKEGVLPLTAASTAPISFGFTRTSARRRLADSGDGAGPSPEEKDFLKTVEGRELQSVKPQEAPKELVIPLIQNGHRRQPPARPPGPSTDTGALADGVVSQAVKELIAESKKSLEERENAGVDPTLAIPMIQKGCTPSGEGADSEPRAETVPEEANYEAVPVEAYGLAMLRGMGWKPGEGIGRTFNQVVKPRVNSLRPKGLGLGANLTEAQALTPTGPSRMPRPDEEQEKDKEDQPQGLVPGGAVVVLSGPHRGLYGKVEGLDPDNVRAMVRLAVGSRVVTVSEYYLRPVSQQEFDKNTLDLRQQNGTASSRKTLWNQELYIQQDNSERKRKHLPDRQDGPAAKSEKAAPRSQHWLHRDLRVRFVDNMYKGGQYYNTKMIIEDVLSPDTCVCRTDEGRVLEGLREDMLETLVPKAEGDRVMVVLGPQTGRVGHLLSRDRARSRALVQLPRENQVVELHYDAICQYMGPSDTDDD
# B3: Sodium channel modifier 1 (Homo sapiens), Q9BWG6 (parent)
# chain: MSFKREGDDWSQLNVLKKRRVGDLLASYIPEDEALMLRDGRFACAICPHRPVLDTLAMLTAHRAGKKHLSSLQLFYGKKQPGKERKQNPKHQNELRREETKAEAPLLTQTRLITQSALHRAPHYNSCCRRKYRPEAPGPSVSLSPMPPSEVKLQSGKISREPEPAAGPQAEESATVSAPAPMSPTRRRALDHYLTLRSSGWIPDGRGRWVKDENVEFDSDEEEPPDLPLD
# partner: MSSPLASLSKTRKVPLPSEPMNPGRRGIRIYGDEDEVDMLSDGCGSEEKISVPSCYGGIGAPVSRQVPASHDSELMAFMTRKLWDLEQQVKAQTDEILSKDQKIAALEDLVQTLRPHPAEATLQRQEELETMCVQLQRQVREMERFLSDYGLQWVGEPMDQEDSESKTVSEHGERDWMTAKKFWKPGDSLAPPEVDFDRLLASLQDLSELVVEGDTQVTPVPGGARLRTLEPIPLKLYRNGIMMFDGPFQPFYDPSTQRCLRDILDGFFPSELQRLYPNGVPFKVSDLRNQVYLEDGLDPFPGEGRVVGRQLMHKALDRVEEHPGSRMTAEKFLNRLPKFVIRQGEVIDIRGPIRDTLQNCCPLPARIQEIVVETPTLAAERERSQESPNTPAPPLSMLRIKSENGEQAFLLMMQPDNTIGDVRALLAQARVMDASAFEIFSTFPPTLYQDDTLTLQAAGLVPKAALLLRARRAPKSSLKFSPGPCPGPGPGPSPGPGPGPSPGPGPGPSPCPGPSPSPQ
# B4: Homeobox protein PKNOX1 (Homo sapiens), P55347 (parent)
# chain: MMATQTLSIDSYQDGQQMQVVTELKTEQDPNCSEPDAEGVSPPPVESQTPMDVDKQAIYRHPLFPLLALLFEKCEQSTQGSEGTTSASFDVDIENFVRKQEKEGKPFFCEDPETDNLMVKAIQVLRIHLLELEKVNELCKDFCSRYIACLKTKMNSETLLSGEPGSPYSPVQSQQIQSAITGTISPQGIVVPASALQQGNVAMATVAGGTVYQPVTVVTPQGQVVTQTLSPGTIRIQNSQLQLQLNQDLSILHQDDGSSKNKRGVLPKHATNVMRSWLFQHIGHPYPTEDEKKQIAAQTNLTLLQVNNWFINARRRILQPMLDSSCSETPKTKKKTAQNRPVQRFWPDSIASGVAQPPPSELTMSEGAVVTITTPVNMNVDSLQSLSSDGATLAVQQVMMAGQSEDESVDSTEEDAGALAPAHISGLVLENSDSLQ
# B5: Glutathione S-transferase A2 (Homo sapiens), P09210 (parent)
# chain: MAEKPKLHYSNIRGRMESIRWLLAAAGVEFEEKFIKSAEDLDKLRNDGYLMFQQVPMVEIDGMKLVQTRAILNYIASKYNLYGKDIKEKALIDMYIEGIADLGEMILLLPFSQPEEQDAKLALIQEKTKNRYFPAFEKVLKSHGQDYLVGNKLSRADIHLVELLYYVEELDSSLISSFPLLKALKTRISNLPTVKKFLQPGSPRKPPMDEKSLEESRKIFRF
# partner: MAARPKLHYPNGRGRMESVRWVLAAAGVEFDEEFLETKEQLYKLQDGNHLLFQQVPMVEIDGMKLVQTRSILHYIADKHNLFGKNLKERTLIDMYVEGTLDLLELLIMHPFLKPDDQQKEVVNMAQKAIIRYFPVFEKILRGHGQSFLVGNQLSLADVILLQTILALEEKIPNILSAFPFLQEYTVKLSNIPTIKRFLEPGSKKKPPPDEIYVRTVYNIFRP
# B6: Protein FAM9B (Homo sapiens), Q8IZU0 (parent)
# chain: MAAWGKKHAGKDPVRDECEERNRFTETREEDVTDEHGEREPFAETDEHTGANTKKPEDTAEDLTAKRKRMKMDKTCSKTKNKSKHALRKKQLKRQKRDYIHSLKLLNVLEEYITDEQKEEEEEEGEEEELIRIFQEQQKKWQQYRSVRRERLKEMKLLRDQFVKALEDFEDLCDRVFSDEDSELDN
# partner: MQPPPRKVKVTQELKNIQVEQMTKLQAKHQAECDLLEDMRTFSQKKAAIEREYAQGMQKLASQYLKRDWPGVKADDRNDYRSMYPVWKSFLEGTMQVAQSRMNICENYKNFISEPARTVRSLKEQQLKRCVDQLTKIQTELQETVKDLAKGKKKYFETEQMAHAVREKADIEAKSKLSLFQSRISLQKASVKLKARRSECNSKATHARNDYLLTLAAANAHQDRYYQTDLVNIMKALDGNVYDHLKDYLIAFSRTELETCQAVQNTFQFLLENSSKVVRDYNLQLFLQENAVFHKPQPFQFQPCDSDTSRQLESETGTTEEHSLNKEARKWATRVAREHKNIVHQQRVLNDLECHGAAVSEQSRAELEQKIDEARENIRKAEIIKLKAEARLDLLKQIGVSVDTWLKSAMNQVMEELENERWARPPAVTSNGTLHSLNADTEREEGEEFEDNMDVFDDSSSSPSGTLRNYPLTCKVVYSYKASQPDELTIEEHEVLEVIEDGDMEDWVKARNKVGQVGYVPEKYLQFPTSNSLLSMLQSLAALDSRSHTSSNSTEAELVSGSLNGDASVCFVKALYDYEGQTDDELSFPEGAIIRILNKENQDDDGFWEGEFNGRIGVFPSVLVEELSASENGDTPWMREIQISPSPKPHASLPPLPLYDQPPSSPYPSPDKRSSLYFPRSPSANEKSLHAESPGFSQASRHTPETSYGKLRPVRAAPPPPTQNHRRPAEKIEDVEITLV
# B7: Transcription factor 4 (Homo sapiens), P15884 (parent)
# chain: MHHQQRMAALGTDKELSDLLDFSAMFSPPVSSGKNGPTSLASGHFTGSNVEDRSSSGSWGNGGHPSPSRNYGDGTPYDHMTSRDLGSHDNLSPPFVNSRIQSKTERGSYSSYGRESNLQGCHQQSLLGGDMDMGNPGTLSPTKPGSQYYQYSSNNPRRRPLHSSAMEVQTKKVRKVPPGLPSSVYAPSASTADYNRDSPGYPSSKPATSTFPSSFFMQDGHHSSDPWSSSSGMNQPGYAGMLGNSSHIPQSSSYCSLHPHERLSYPSHSSADINSSLPPMSTFHRSGTNHYSTSSCTPPANGTDSIMANRGSGAAGSSQTGDALGKALASIYSPDHTNNSFSSNPSTPVGSPPSLSAGTAVWSRNGGQASSSPNYEGPLHSLQSRIEDRLERLDDAIHVLRNHAVGPSTAMPGGHGDMHGIIGPSHNGAMGGLGSGYGTGLLSANRHSLMVGTHREDGVALRGSHSLLPNQVPVPQLPVQSATSPDLNPPQDPYRGMPPGLQGQSVSSGSSEIKSDDEGDENLQDTKSSEDKKLDDDKKDIKSITSNNDDEDLTPEQKAEREKERRMANNARERLRVRDINEAFKELGRMVQLHLKSDKPQTKLLILHQAVAVILSLEQQVRERNLNPKAACLKRREEEKVSSEPPPLSLAGPHPGMGDASNHMGQM
# B8: U3 small nucleolar RNA-associated protein 25 homolog (Homo sapiens), Q68CQ4 (parent)
# chain: MGKRGSRSQSQLLNTLTKKQKKHLRDFGEEHPFYDRVSRKEAKPQICQLSESSDSSDSESDSESEPQQVSGYHRLLATLKNVSEEEEEDEEEEEEEDSIVDDAEMNDEDGGSDVSVEEEMAAESTESPENVALSADPEGKEDGEEPPGTSQTSPEEFTDAKHESLFSLETNFLEEESGDNSSLKASQDPFLQHVNKELKEKAIQAVATNPKTTHELKWPILGQLFFSSKFQKLETFKPPKDIDLKSLHLQKPLESTWTKTNSQFLSGPQKSSSPFTPLQKELFLIMNSYRDLFYPERTALKNGEEIRHVYCLHVINHILKANAQVLGNNSRRRSQKFGVGDDDDFRDQGLTRPKVLIVVPFREAALRVVQLFISLLEGDSKKKIIVSNKKRFQGEYGSDPEERPPNLKRPEDYEAVFVGNIDDHFRIGVAILQRSIRLYAPFYSSDILIASPLGLRTIIGGEGEKKRDFDFLSSIELLIIDQADIYLMQNWEHVLHLMNHMNLLPLDSHGVDFSRVRMWSLNNWSKYYRQTLLFGALQDAQINSVFNKYCVNMQGQVAVRNVPMTGSISHVLVQLPHVFQRMEAENLASVIDARFNFFVNKILPQYRDAVMSHTLIYIPSYFDFVRLRNYFKKEELNFTHICEYTQKSGVSRARHFFLQGEKQFLLFTERFHFYKRYTIKGIRNLIFYELPTYPHFYSEICNMLRATNRGEEATWTCTVLYSKYDAQRLAAVVGVERAAQMLQSNKNVHLFITGEK
# Variants of: B1
# Conditions: with dpolm_human POLM
row,effect of a mutation on the interaction,Variant
1,with no effect,R348K
2,with no effect,A244P

# Variants of: B1
# Conditions: with tead4_human TEAD4, Q15561
# Chain of tead4_human TEAD4, Q15561 (Q15561 whole entry): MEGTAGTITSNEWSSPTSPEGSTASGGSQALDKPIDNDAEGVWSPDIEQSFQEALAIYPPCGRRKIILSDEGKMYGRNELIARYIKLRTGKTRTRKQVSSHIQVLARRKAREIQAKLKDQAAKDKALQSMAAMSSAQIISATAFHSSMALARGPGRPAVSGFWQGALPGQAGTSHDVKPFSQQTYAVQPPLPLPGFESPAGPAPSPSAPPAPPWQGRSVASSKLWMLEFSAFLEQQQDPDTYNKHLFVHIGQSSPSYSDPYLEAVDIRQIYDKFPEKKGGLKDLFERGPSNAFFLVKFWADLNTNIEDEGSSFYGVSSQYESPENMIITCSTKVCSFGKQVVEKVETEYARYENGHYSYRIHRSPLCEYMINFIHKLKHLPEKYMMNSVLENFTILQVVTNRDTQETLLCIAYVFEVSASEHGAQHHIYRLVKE
row,effect of a mutation on the interaction,Variant
1,with no effect,R348K
2,with no effect,A244P

# Variants of: B1
# Conditions: with anx11_human ANXA11, P50995
# Chain of anx11_human ANXA11, P50995 (P50995 whole entry): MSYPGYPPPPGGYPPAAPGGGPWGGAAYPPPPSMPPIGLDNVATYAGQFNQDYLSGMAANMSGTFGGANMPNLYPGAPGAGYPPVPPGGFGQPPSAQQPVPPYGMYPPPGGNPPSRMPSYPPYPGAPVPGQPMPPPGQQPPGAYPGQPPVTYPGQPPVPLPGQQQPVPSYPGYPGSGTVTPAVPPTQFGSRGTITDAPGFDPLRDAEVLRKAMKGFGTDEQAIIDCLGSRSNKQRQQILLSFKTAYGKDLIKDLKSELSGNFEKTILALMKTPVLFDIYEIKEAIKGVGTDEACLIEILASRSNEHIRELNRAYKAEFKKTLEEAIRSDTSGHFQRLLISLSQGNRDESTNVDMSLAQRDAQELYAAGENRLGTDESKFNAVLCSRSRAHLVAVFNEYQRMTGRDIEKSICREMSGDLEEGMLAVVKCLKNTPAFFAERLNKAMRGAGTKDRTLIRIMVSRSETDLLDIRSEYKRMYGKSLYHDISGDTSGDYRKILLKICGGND
row,effect of a mutation on the interaction,Variant
1,with no effect,R348K
2,disrupting interaction strength,A244P

# Variants of: B1
# Conditions: with pdc6i_human PDCD6IP
row,effect of a mutation on the interaction,Variant
1,with no effect,R348K
2,with no effect,L59F
3,with no effect,R138Q
4,with no effect,E321K
5,with no effect,A244P

# Variants of: B2
# Conditions: with gpkow_human GPKOW
row,effect of a mutation on the interaction,Variant
1,with no effect,P148L

# Variants of: B3
# Conditions: with ubx11_human UBXN11, Q5T124
row,effect of a mutation on the interaction,Variant
1,with no effect,A174V

# Variants of: B4
# Conditions: with vp37c_human VPS37C
row,effect of a mutation on the interaction,Variant
1,with no effect,E103D
2,with no effect,V265I

# Variants of: B4
# Conditions: with vp37c_human VPS37C
# Remark: another data set of the same source
row,effect of a mutation on the interaction,Variant
1,with no effect,V265I

# Variants of: B5
# Conditions: with gsta4_human GSTA4, O15217
row,effect of a mutation on the interaction,Variant
1,with no effect,E210A

# Variants of: B6
# Conditions: with fcsd2_human FCHSD2, O94868
row,effect of a mutation on the interaction,Variant
1,with no effect,R23H

# Variants of: B7
# Conditions: with defi6_human DEF6, Q9H4E7
# Chain of defi6_human DEF6, Q9H4E7 (Q9H4E7 whole entry): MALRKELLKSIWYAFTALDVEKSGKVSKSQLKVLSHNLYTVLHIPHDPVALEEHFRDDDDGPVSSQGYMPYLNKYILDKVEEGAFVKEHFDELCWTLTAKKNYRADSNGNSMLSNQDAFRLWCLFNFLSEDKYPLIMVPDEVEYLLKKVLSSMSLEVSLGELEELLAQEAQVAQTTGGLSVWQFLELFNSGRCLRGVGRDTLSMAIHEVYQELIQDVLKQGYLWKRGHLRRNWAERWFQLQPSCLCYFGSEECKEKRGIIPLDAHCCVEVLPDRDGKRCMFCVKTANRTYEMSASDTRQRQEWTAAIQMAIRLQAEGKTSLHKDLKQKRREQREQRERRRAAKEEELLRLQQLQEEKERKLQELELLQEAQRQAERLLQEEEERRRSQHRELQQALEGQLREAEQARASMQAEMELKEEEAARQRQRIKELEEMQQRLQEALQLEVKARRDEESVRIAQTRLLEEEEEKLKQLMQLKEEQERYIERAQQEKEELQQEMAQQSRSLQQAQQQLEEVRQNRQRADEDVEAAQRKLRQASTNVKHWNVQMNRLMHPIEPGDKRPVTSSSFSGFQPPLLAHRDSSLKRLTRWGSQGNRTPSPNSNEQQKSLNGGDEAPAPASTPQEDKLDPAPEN
row,effect of a mutation on the interaction,Variant
1,with no effect,N90S

# Variants of: B8
# Conditions: with rufy1_human RUFY1, Q96T51
# Chain of rufy1_human RUFY1, Q96T51 (Q96T51 whole entry): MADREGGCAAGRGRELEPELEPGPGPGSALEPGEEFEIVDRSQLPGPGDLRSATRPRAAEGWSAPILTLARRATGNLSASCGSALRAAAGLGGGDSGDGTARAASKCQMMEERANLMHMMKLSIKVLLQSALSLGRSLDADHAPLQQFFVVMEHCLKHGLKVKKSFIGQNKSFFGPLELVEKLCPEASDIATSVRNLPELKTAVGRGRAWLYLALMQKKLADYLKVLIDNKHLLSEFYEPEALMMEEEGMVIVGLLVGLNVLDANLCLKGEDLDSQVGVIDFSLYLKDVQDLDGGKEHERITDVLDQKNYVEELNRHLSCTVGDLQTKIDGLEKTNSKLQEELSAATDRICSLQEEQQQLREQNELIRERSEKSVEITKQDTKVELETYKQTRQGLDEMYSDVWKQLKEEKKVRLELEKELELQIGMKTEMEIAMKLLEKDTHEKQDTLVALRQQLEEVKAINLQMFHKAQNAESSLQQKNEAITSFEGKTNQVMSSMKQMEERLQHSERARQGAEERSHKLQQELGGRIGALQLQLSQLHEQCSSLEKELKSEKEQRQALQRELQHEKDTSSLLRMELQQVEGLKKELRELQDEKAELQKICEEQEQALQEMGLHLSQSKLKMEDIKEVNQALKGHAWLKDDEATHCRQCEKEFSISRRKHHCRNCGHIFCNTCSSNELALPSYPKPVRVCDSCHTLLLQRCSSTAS
row,effect of a mutation on the interaction,Variant
1,with no effect,Q67E
2,with no effect,G111D

# Variants of: B8
# Conditions: with cep70_human CEP70, Q8NHQ1
# Chain of cep70_human CEP70, Q8NHQ1 (Q8NHQ1 whole entry): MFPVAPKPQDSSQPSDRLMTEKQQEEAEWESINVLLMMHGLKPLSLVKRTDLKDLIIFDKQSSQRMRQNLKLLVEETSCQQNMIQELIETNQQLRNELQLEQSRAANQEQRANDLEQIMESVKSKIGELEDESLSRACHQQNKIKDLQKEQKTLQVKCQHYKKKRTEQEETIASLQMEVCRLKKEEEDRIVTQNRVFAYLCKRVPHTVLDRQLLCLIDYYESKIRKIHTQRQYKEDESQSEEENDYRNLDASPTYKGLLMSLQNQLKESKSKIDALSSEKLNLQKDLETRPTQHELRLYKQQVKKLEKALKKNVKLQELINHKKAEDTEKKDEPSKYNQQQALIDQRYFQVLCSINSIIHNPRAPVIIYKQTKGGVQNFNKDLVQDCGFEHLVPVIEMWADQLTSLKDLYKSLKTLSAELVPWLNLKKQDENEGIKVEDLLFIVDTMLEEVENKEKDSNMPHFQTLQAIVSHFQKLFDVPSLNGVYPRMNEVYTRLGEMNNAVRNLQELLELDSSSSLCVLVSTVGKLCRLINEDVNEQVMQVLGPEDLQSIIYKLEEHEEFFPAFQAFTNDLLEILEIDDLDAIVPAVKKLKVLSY
row,effect of a mutation on the interaction,Variant
1,with no effect,Q67E
2,with no effect,G111D

# Variants of: B8
# Conditions: with trim1_human MID2, Q9UJV3
# Chain of trim1_human MID2, Q9UJV3 (Q9UJV3 whole entry): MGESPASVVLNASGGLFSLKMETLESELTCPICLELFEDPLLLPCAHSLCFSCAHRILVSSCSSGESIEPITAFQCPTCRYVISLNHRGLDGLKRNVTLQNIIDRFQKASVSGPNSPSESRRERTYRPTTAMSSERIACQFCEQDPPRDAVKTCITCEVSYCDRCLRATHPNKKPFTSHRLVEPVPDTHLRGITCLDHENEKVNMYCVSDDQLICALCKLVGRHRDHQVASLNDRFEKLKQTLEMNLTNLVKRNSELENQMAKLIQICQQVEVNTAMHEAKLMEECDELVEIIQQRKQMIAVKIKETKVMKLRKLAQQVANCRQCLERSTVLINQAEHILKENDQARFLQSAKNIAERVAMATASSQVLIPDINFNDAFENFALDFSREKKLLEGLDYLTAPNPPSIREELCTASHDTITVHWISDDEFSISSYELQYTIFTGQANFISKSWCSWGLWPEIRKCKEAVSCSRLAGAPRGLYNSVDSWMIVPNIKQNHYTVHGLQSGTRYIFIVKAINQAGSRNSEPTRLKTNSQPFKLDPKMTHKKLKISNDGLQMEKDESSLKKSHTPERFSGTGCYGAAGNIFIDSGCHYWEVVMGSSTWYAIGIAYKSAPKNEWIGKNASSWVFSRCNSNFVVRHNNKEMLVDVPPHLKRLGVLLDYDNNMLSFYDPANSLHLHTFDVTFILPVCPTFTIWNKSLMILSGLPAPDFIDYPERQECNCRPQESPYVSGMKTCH
row,effect of a mutation on the interaction,Variant
1,with no effect,Q67E
2,with no effect,G111D

# From IntAct's records for PubMed 31515488
